The nature of this data set: soluble on expression in E. coli; label from the status in PepcDB or PDB records.
Regarding “MSLKPKRILLVNEQRSFQVMMKAMLINIGISRITYANSAEEARRRCQKETFDIYLLDYELGVGENGRQLLESLRDQKLIPPQSVVIMVSGDSSRAMVLSALEAEPDEYLMKPFSQEQFSFRLKRALARRQALESVFSALAKEDLPTLLAACAERADAVPRFANFCRCLQADTQLKLGQAKEARSLMRQLLAGQENSWARLTLGKACHTLGLNEEAVSHLQATLKNTPLMVEAHLWLAESQLALGNDEQAQQELKRAVDISPQSVQLSRRLAEVCLLRHDYAQAKDVLLSLIDLSRNSIHRTPHYLGAYIQSLTLYALNSNDIYHIANLQKQVNSALSRIRDSLMMSEFNYPVFEQICQARVQIALGELLKGKKMLYRANQNWLDQPATMPPSLLGETILALYQLGEFEYAESLQALLAEDEDRLLTTCIQATRDDKTVLERRQRYQQLNELGIKAYQSGELEQALGHFREALRRAPANTGAALNKIQVLLQLMQKNRKSPEFGAECKETLEVLDGIPLNPAQQDRFRKLRQEFTQLSEGHHHHHH”, the “soluble on expression in E. coli” value was “soluble”. In the case of “RILDIDPVAQTAVVEPGVVCDALRDAAAEFGLTYGPDPSTHSRCTIGGMVANNACGSHSVAFGTAAENLVDVTLMLSDGREVTVTKDGCDDAEINQKLTDLASKNQDLISKELGRFPRQVSGYGLHYLAHDMAKAMAGTEGTIGIITRLTVKLVPTP”, the “soluble on expression in E. coli” value was “not soluble”. For the sequence “NILKIRCAPVTWPIGMGKNFKGVYHILNDEIYLFEAGGERLPHEFDIIKGIDNPELEQRFPLEIQQLRDEIELVQAASNEFNLDEFLAGELTPVFFGSAINNFGIQEILNSLIDWAPAPKPRDATVRMVEPDEPKFSGFIFKIQANMDPKHRDRIAFLRVCSGKFERGMKMKHLRINREIAASSVVTFMSHDRELVEEAYAGDIIGIPNHGNIQIGDSFSEGEQLAFTGIPFFAPELFRSVRIKNPLKIKQLQKGLQQLGEEGAVQVFKPMSGADLILGAVGVLQFEVVTSRLANEYGVEAVFDSASIWSARWVSCDDKKKLAEFEKANAGNLAIDAGGNLAYLAPNRVNLGLTQERWPDIVFHETREHSVKL”, the “soluble on expression in E. coli” value is “not soluble”. On to “MSLRAQGEVVLSIDGEPVKRSEFEYYFRKSSHRTPLSFLPSFINYKLKVRYAHDMGIDTLSVFRRQVDWYRGKLLRTYLADAEKEEQAARRLYLQGEQRLQANDWIKIAHISKYLSQNASRQEEMRVRQQMDSVYEALREGADFATLARRYSDDEACKNVGGVLPWMPVNKNMQEWIDKLESLERNKISAPFYSPMGIHIVKWIDRRQGVSFEEKREQLLNYLEKNGNCTWKELSAEQKEELEFRVQELQDGLLAAYLSQKYQSGDEAWNEDDLERFFKQHKSDYAWELPHYRGAVIHCKDRKTASAIKKQLKKKPVSQWKDILHTLTGDDASSKVRMEAGVFQIGTNRYIDKLVFKCGSFQPEPDLPYTFVMGKKLKKGPESYEDVREAVVKDYLTVYEDAWLKDLKRKYKVEINQEVLKTVNNNGSEGHHHHHH”, for which the “soluble on expression in E. coli” value is recorded as “not soluble”. On to “AELVSDKALESAPTVGWASQNGFTTGGAAATSDNIYIVTNISEFTSALSAGAEAKIIQIKGTIDISGGTPYTDFADQKARSQINIPANTTVIGLGTDAKFINGSLIIDGTDGTNNVIIRNVYIQTPIDVEPHYEKGDGWNAEWDAMNITNGAHHVWIDHVTISDGNFTDDMYTTKDGETYVQHDGALDIKRGSDYVTISNSLIDQHDKTMLIGHSDSNGSQDKGKLHVTLFNNVFNRVTERAPRVRYGSIHSFNNVFKGDAKDPVYRYQYSFGIGTSGSVLSEGNSFTIANLSASKACKVVKKFNGSIFSDNGSVLNGSAVDLSGCGFSAYTSKIPYIYDVQPMTTELAQSITDNAGSGKL”, for which the “soluble on expression in E. coli” value was “soluble”. For “MGSDKIHHHHHHMEGKALRQGSIAGKGAPRNTASLIQYAQDHFDAAHFQGLMAIYGRPLADRAVALTHDRGRRVVDFVRCSYLGLDNHPQIVAGAVEAMKEYGTLHWSCARTRLNFSILGDLEAALSELFDARVITYTTVLAANMGALPLIASGHLTGGVKPLMVFDRLAHATLAFHKGTIAAETRVETIAHNDLEALEMLCRTNGSVAFVCDGVYSMGGSADLARLRRLQERYGLFLYIDDAHGVSIFGKHGEGFARSQMSGPLGERTIVAASLGKGFGASGGLIMLGTARQEELFRRFAVAHAFSASLNVAAIGAARASQQLHLTEELTELQQRLRSRTALFDSLVPTEQQGSPLPIRTVEIGDEMTAIGAARALLDRGFYTSAIFFPTVARGRAGLRLCPTAGHSEDDIRGLGIAIQDVLKEISGR” the value was “not soluble”; for “MISILYDEIVSCSRCERLIEYRKNFKIPPRFKDWNYWNKPVPGFGDEKAKILIVGLAPALHGGNRTGRVFTGDESGKWVIKGLYALGLSNKEEGKTREDGLEVKEVYLTNTVKCAPPKNKPTREEISNCSRFLIEEIKSLRIKVILALGRIAFDTILSLYGIKSKFYHGVVIKLPDDKILIGSYHPSAQNTKTGRLKWEDWIKILKLAYEIANNPQY”, “soluble”; for “MGSDKIHHHHHHMEKIGELINHFRENKGMSQAELSEGILSKAQLSKFERDLTKISVDKFLALLERLHVTFTEFGNALAIQERLYEQAILEDITKAVINNNKDQAQLVKERAEQHLKKHHGKYNQLTLIMVKAMICDMEKGTLPKADTKVLADYLFSVDGWTHFELLLFGNTMSALSLVTVNQLARELAAQINEAWAIHQNFQLTINLLYNVVILNLSAKDLTTARLFLRVMKHSHVEDSMMAERYLIALADAFCDYCGEPTVEHENNVKRMIEIQKEIGSTNFFVAFNNQAKMFISETKISSNDSAGNV”, “not soluble”. The entry for “MIALKMFYTEETYEQFFDYGLDYVIDASDTICYKIHLMKECLKRDIPLISSMGAANKTDPTRFQIADISKTHTDPIAKVVRTKLRKEGIKKGVQVIFSDESPIVIREDVRKEVGNDEAKIRKAKMPPSSNAFVPSVAGLIMGGHVVMDLLKDIEIKRVKDK” is “not soluble”.

On to “MGSDKIHHHHHHMILKRISILNYKNLEQVEIGFSAKLNCFFGQNGMGKTNLLDAVYFLSFCKSSGNPIDSQNIRHEQDFFVIQGFYEAEDGTPEEIYCGMKRRSKKQFKRNKKEYSRFSDHIGFLPLVMVSPADSELIAGGSDERRRFMDVVISQYDKEYLEALIRYNKALAQRNTLLKSEFPVEEELFLVWEEMMAQAGEIVFRKREAFIEEFIPIFQSFYSFISQDKEQVGLSYDSHARDASLLEVLKQSRERDKIMGFSLRGIHKDELNMLLGDFPIKKEGSQGQNKTYLVALKLAQFDFLKRTGQTVPLLLLDDIFDKLDASRVEQIVKLVAGDNFGQIFITDTNREHLDRILQKVGSDYKVFRVDQGVINEMGAEQ”, for which the “soluble on expression in E. coli” value is on record as “not soluble”. Consider “MGSDKIHHHHHHMTKQLLVLQSDFGISDGAVSAMYGVINSVSKDLQIYDLTHQIPQFNIWEASYRLLQTVTYWPEDTIFVSIVDPGVGSKRRSVVVLTEDGHYIITPDNGTLTHIAHYGTIKEVRLIDEEKNRLPKSGASHTFHGRDIFAYTAARLAAGVINFEDIGPSATPDSIVSLSLSDSYLEGEQAFGTIDIIDRPFGNLWTNIRRTDFLQLGANYGDSIEVLIKHHDRVVYKNFVTYSRSFADLRIGEALIYVNSLDNLGLGINQGSFVDAYSVGTGTSWKVTLKKV”, for which the “soluble on expression in E. coli” value is reported as “not soluble”. For the sequence “SLDIKEIVGDYNSFLDTIFELLIKGGFKENELKELPIDHICYRVSTNEFYNEKKEQLNQLGELLVETEIGGRMISTFKLNKPIQYKDKSIPLIELPAPKKNRINYDGLEHIEMVINEPFQSFVDNHPSPIDENLKFNWVLHALNKDINPDVECEFIDPRIKNEIRTISVKFHHQSLEEVVKYEIQLLKENEG”, the “soluble on expression in E. coli” value is “soluble”. The entry for “MGSDKIHHHHHHMSDLINIQKKLLPDVLMIMQKRYQILRSIYFSEPVGRRTLAGMLGMSERVLRGEVEFLKAQGLVEIASSGMTVTKEGLVVFRDLESVMNQLSGLHSMEEQLAKKLQIKKCLVVQGDSDDTPWVREEMGRVAVEQLDMALTEKRNIVAVMGGSTMATVAEMMTTDFAKGRELLFVPGRGGIGEDLDNQANTICDKMATKTNTKHRVLYVPEQLGEEAYRSLLKEPAIQEGLRLVQSANAIILGIGDALAMAKRRHTGEDVLEKIIHRKAVGEAFGYYFDEQGEVVHKVPTFGLQFEDLAQIPHIIAVAGGTSKAKAIKSYMKSAPKNTILITDEGAAKSLLKGSNTLLK” is “not soluble”.

As for “MSLADPNESTFARIRRTKKMRIGAVGGGAPYYMKDLASGQWKGFYVDIAKALADDMEAELEITETTWGNSVLDLQSNKIDIFFGLNPTPKRALVVDFSVPVFNNAFGILCKKDFKPKTWAELNSPDVKIAVDQGSSHDQVVSRLIPKAQISRLKTADDATAALQTGRVDAQCLITMLSLTVLKKNPSLGQFVLPTPIFATTSNAGFRRETDKTWRDYVNTWIDFNKGLGFIRNAIITNMELVGVTEADIPPGVSLEGHHHHHH”, the “soluble on expression in E. coli” value is listed as “soluble”.

For “MGSDKIHHHHHHAQRGKRAMNRIDREVQETVFIPKGTWMAGGTVSYSEHDEGNLNFLVLKNVEGKGYNFGVSPYVGYFFRNNISAGMRFAYHRDYLDLKNFELNLGEDFNISLDNLYYLEHKYEVSGFLRTYMPIGRSKIFGLFNEARLTYGYGTGKNSTGTGATYDGSYQTAQNLQIGIAPGMTAFITDWSAVEVSVGVMGFDFKWIDQKTNQIEEGHQRVSSGNFKINLFSINIGMTFYL”, the “soluble on expression in E. coli” value is reported as “not soluble”. With “MKIRTSMIALSLAALLSGCQSLNTEGLMQSGAQAFQAATLNDADVKALSEKSCVEMDQKAQIASADSQYGKRMAKIAAALGDNINGTPANYKVYVTKDVNAWAMANGCIRVYSGLMDMMTDNEVEGVVGHEMGHVALGHTRKAMQVAYGTTALRTAIASAGGVVGTLSQSQLADLGEKLVNAQFSQKQESEADDYSFDLLKKRGIDPNGLVTSFEKLASMEAGRNSSMFDDHPSSQARAEHIRQRIAAEK”, the “soluble on expression in E. coli” value is given as “not soluble”.

As to “MDRVTRYPILGIPQAHRGTGLVLDGDTSYTYHLVCMGPEASGWGQDEPQTWPTDHRAQQGVQRQGVSYSVHAYTGQPSPRGLHSENREDEGWQVYRLGARDAHQGRPTWALRPEDGEDKEMKTYRLDAGDADPRRLCDLERERWAVIQGQAVRKSSTVATLQGTPDHGDPRTPGPPRSTPLEENVVDREQIDFLAARQQFLSLEQANKGAPHSSPARGTPAGTTPGASQAPKAFNKPHLANGHVVPIKPQVKGVVREENKVRAVPTWASVQVVDDPGSLASVESPGTPKETPIEREIRLAQEREADLREQRGLRQATDHQELVEIPTRPLLTKLSLITAPRRERGRPSLYVQRDIVQETQREEDHRREGLHVGRASTPDWVSEGPQPGLRRALSSDSILSPAPDARAADPAPEVRKVNRIPPDAYQPYLSPGTPQLEFSAFGAFGKPSSLSTAEAKAATSPKATMSPRHLSESSGKPLSTKQEASKPPRGCPQANRGVVRWEYFRLRPLRFRAPDEPQQAQVPHVWGWEVAGAPALRLQKSQSSDLLERERESVLRREQEVAEERRNALFPEVFSPTPDENSDQNSRSSSQASGITGSYSVSESPFFSPIHLHSNVAWTVEDPVDSAPPGQRKKEQWYAGINPSDGINSEVLEAIRVTRHKNAMAERWESRIYASEEDD”, the “soluble on expression in E. coli” value is given as “not soluble”. In the case of “MGSDKIHHHHHHMITGFASSLYKKYEGSTFELLADTVFSALEMAGLDKNYVDGIYLTYLPGTFDGYANSHFFTNQVAQYLGIRPKFTQIFDYGGASALSMIHRAYKAIKAGEGETILCIVGGKATELRNKGVTVDAIDKAYPNVSLTPFDRLFRGLNDLNPVSDYALVANRHKYLFKSTDEQRALIAVRQRFNAMQNSKAMFKDPLTIEQVLKSPLVSYPLHLLEIVYPIDGFHVFVVSKRSSKSALTNIDILGYGEAHWPFMPTELDEIVYTPAVESSKGLLNGRIDAFELYDSFTITVMLQVEDIGLAEKGKGGSFFENHDTTFKGDVPINTGGGSLNTGQPAYMSGGVILEEALLQLNDMADGHQVKGTDVVFLNGIGGWNRSHSVSLVLGEKK”, the “soluble on expression in E. coli” value is given as “not soluble”.

Source of the values: the DeepSol protein solubility set.
